We go through 16 molecules from US20230122503A1 (Janssen / Centocor, published 2023).

To fix the notation:
B1: PSMB1154 (antibody, human IgG1, lambda, V domains shown)
VH: EVQLVESGGGEVQPGRSLRLTCAVSGFTLSRYGMHWVRQAPGKGLEWAALISYDGSNRYYADSVKGRFTISRDNSKNTVFLQMNSLRAEDTAVYYCARERESSGWFEGYFDYWGQGTTVTVSS
VL: QLVLTQPPSVSVAPGQTARITCGGNNIGSKSVHWYQQKPGQAPVLVVYDNSDRPSGIPERFSGSNSGNTATLTISRVEVGDEADYYCQVWDSSSDHVVFGGGTKLTVLG
notes: huIgG1, lambda light chain
B2: PSMB1156 (antibody, human IgG1, lambda, V domains shown)
VH: EVQLVESGGGVVQPGRSLRLSCAASGFTFTSYGMHWVRQAPGKGLEWVAVISYDGSNKYYADSVKGRFTISRDNSKNTLYLQMNSLRAEDTAVYYCAREHYDSSGYYHGYYGMDVWGQGTTVTVSS
VL: not shown
notes: huIgG1, lambda light chain
B3: PSMB1098 (antibody, human IgG1, kappa, V domains shown)
VH: QVQLVESGGGVVQPGRSLRLSCAASGFTFSTYGMHWVRQAPGKGLEWVAFISYDGSNKYYADSVKGRFTISRDNSKHTLYLQMNSLRAEDTAVYYCAGRDNLRFLEWFMDVWGQGTTVTVSS
VL: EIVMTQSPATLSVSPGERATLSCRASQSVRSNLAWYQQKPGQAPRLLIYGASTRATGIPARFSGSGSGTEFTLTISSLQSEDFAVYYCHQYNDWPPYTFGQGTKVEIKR
notes: huIgG1, kappa light chain
B4: PSMB1195 (antibody, human IgG1, kappa, V domains shown)
VH: EVQLVESGGGLVKPGGSLRLSCAASGFTFSSYSLNWVRQAPGKGLEWVSSISSSSSYISYADAVKGRFTISRDNAKNSLYLQMNSLRAEDTAVYYCARDRGFLEDYYYYYGMDVWGQGTTVTVSS
VL: DIVMTQSPSSVSASVGDRVTITCRASQGISNWLAWYQQKPGKAPKLLIYVASSLQSGVPSRFSGSGSGTDFSLTISSLQPEDFATYYCQQAYSFPLTFGGGTKVEIKR
notes: huIgG1, kappa light chain
B5: PSMB1157 (antibody, human IgG1, lambda, V domains shown)
VH: EVQLVESGGGVVQPGRSLRLSCAASVRTFSGYGMHWVRQVPGKGLEWVAVISYDGSNRYYADSVKGRFTISRDNSKNTLYLQMNSLRTEDTAVYYCARDGNWGSLDLYFDLWGRGTLVTVSS
VL: QSVLTQPPSVSGAPGQRVTISCTGSSSNIGADYDVHWYQQLPGTAPKLLIYVNNNRPSGVPDRFSGSRSGTSASLAITGLQADDEADYYCQSYDNTLSGVVFGGGTKLTVLG
notes: huIgG1, lambda light chain
B6: PSMB1183 (antibody, human IgG1, lambda, V domains shown)
VH: QVQLQESGPGLVKSSETLSLTCTVSGGSISSYYWNWIRQPAGKGLEWIGRIYSSGNTDYNPSLKSRVTMSVDTSKNQFSLKLISVTAADTAVYYCARGRGANVGLFDYWGQGTLVTVSS
VL: QSALTQPPSVSGAPGQRVTISCTGSNSNIGANYDVHWYQHLPGTAPKLLIYGNINRPLGVPDRFSGSRSGTSASLAITGLQAEDEADYYCQSYDFSLSGSVFGVGTKLTVLG
notes: huIgG1, lambda light chain
B7: PSMB1088 (antibody, human IgG1, kappa, V domains shown)
VH: EVQLVESGGGVVQPGRSLRLSCAASGFTFSSYDMHWVRQAPGKGLEWVTVISFDGSNKYYVDSVKGRFTISRDNSKNTLYLQMNSLRAEDTAVYYCARTYYDILTGYSHYSYGMDVWGQGTTVTVSS
VL: EIVMTQSPSSLSASVGDRVTITCRASQGISNYLAWYQQKPGKVPKLLIYATSTLQSGVPSRFSGSGSGTDFILTISSLQPEDVANYYCQKYNSAPFTFGPGTKVEIKR
notes: huIgG1, kappa light chain
B8: PSMB1113 (antibody, human IgG1, kappa, V domains shown)
VH: EVQLVESGGGLVKPGGSLRLSCAASGFTLSIYSMNWVRQAPGKGLEWVSSISSSSSYIFYADSVKGRFTISRDNAKNSLFLQMNSLRAEDTAVYYCARSSYGADYWGQGTLVTVSS
VL: B7 VL with G28D, S30T, Y32F, A50T, T51A, I72T, N85T, F96L, P100G, V104L
notes: huIgG1, kappa light chain
B9: PSMB1154 conjugated to MC-GGFG-DX8951 (antibody, human IgG1, lambda, V domains shown)
VH: B1 VH
VL: B1 VL
modifications: MC-GGFG-DX8951 on reduced cysteines, DAR 8.0
B10: PSMB1156 conjugated to MC-GGFG-DX8951 (antibody, human IgG1, lambda, V domains shown)
VH: B2 VH
VL: not shown
modifications: MC-GGFG-DX8951 on reduced cysteines, DAR 8.0
B11: PSMB1157 conjugated to MC-GGFG-DX8951 (antibody, human IgG1, lambda, V domains shown)
VH: B5 VH
VL: B5 VL
modifications: MC-GGFG-DX8951 on reduced cysteines, DAR 8.0
B12: PSMB1183 conjugated to MC-GGFG-DX8951 (antibody, human IgG1, lambda, V domains shown)
VH: B6 VH
VL: B6 VL
modifications: MC-GGFG-DX8951 on reduced cysteines, DAR 8.0
B13: PSMB1154 conjugated to maleimide-PEG4-vcPAB-MMAF (antibody, human IgG1, lambda, V domains shown)
VH: B1 VH
VL: B1 VL
modifications: maleimide-PEG4-vcPAB-MMAF and N-ethyl maleimide on reduced cysteines (sites not given)
B14: PSMB1156 conjugated to maleimide-PEG4-vcPAB-MMAF (antibody, human IgG1, lambda, V domains shown)
VH: B2 VH
VL: not shown
modifications: maleimide-PEG4-vcPAB-MMAF and N-ethyl maleimide on reduced cysteines (sites not given)
B15: PSMB1157 conjugated to maleimide-PEG4-vcPAB-MMAF (antibody, human IgG1, lambda, V domains shown)
VH: B5 VH
VL: B5 VL
modifications: maleimide-PEG4-vcPAB-MMAF and N-ethyl maleimide on reduced cysteines (sites not given)
B16: PSMB1183 conjugated to maleimide-PEG4-vcPAB-MMAF (antibody, human IgG1, lambda, V domains shown)
VH: B6 VH
VL: B6 VL
modifications: maleimide-PEG4-vcPAB-MMAF and N-ethyl maleimide on reduced cysteines (sites not given)

Numbering of substitutions follows the chain as printed.

T2 sequence (Q04609 whole entry): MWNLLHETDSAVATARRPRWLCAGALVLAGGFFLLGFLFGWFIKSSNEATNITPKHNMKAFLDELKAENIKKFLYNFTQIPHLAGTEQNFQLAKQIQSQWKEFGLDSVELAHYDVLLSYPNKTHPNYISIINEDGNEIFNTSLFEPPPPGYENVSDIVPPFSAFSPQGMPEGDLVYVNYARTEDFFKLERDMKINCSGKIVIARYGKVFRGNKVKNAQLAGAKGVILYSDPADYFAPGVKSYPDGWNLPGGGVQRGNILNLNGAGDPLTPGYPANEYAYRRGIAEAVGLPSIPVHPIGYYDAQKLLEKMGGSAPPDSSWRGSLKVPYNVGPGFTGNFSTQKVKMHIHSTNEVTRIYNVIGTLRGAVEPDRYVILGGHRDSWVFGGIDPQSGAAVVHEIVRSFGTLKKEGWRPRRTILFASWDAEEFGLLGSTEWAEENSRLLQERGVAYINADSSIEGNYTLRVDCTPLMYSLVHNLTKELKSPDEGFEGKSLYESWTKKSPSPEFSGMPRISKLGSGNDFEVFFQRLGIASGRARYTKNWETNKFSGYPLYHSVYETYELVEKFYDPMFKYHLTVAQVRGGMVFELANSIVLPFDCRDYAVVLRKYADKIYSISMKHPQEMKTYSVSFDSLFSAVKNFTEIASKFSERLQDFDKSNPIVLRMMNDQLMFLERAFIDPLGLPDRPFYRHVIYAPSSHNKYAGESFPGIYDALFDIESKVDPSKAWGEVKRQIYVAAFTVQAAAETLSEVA

In the first experiment the target is T1, PSMW39, human PSMA ECD (Lys44-Ala750), N-6xHis (human, UniProt Q04609 44-750).
T1 construct: Made in Expi-CHO cells; also called PSMW39.002; recombinant human ECD
T1 sequence (Q04609 other isoform, or with tags, fused parts or gaps): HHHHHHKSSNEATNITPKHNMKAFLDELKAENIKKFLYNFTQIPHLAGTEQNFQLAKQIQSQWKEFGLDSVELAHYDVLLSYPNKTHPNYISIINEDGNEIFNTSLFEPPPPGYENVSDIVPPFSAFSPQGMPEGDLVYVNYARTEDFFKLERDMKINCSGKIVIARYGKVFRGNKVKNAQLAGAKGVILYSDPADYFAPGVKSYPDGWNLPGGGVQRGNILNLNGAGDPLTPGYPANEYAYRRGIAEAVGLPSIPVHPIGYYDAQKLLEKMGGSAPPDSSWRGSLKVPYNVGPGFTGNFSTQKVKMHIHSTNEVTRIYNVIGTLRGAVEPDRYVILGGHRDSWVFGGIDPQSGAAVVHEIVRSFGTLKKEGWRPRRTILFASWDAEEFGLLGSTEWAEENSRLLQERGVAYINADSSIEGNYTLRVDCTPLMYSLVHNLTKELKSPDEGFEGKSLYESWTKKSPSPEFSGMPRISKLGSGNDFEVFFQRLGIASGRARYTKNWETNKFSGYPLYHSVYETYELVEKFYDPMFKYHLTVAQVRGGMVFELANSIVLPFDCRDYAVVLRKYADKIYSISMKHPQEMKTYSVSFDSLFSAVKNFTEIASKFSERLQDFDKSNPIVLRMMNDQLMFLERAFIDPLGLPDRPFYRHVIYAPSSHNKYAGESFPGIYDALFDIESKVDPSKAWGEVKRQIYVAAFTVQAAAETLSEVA
Kind of experiment: SPR (Biacore 8K), antibody captured on goat anti-Fc C1 chip, PSMA ECD as analyte, 1:1 Langmuir fit. On the procedure:
The binding affinity of purified anti-PSMA antibodies to the recombinant human ECD was determined by surface plasmon resonance (SPR) using a BIACORE 8K instrument. The antibodies were captured on a goat anti-Fc antibody-modified C1 chip and titrated with 3-fold serial dilutions of PSMA antigen spanning concentrations of 1 nM to 11.1 nM. The association and dissociation were monitored for 3 and 15 minutes, respectively, using a flow rate of 50 μL/min. Raw binding data was referenced by subtracting the analyte binding signals from blanks and analyzed using a 1:1 Langmuir binding model using the Biacore Insight evaluation software to obtain the kinetics which were used to calculate the binding affinity.
Background: SPR reads the build-up and loss of mass on a sensor chip optically.
In the case of B1, the equilibrium dissociation constant (Kd) (in general, the concentration at which binding is half-saturated) was found to be 1.09 nM; the koff – broadly, the rate constant with which the complex falls apart – is 0.00019 s⁻¹; the kon (in general, the rate constant with which the complex forms) stood at 174000 M⁻¹ s⁻¹.

Regarding B2, binding was put at a Kd of 0.548 nM, the off-rate constant (koff) stood at 0.000168 s⁻¹ and the kon came to 306000 M⁻¹ s⁻¹.

As to B3, the Kd is 0.54 nM, the koff turned out to be 2.85e-05 s⁻¹ and the on-rate constant (kon) worked out at 52700 M⁻¹ s⁻¹.

B4 had a Kd of 9.45 nM, a koff of 0.000101 s⁻¹ and a kon of 10700 M⁻¹ s⁻¹.

As to B5, binding was characterised by a dissociation constant (Kd) of 1.42 nM, the koff was found to be 0.000274 s⁻¹ and the on-rate (kon) came out at 194000 M⁻¹ s⁻¹.

The molecule B6 yielded an equilibrium dissociation constant (Kd) of 0.928 nM, an off-rate constant (koff) of 0.000401 s⁻¹ and an on-rate constant (kon) of 432000 M⁻¹ s⁻¹.

B7 came in with a Kd of 0.97 nM, a koff of 2.85e-05 s⁻¹ and an on-rate (kon) of 29400 M⁻¹ s⁻¹.

Consider B8, for which the affinity, expressed as Kd, was 1.16 nM; the off-rate constant (koff) turned out to be 6.65e-05 s⁻¹; the kon was determined as 57300 M⁻¹ s⁻¹.

A further experiment concerns the target T2, human prostate-specific membrane antigen (PSMA), full length, on cells (human, UniProt Q04609 1-750). Kind of experiment: cell-based or functional assay.
Turning to B9, the “IC50 (cytotoxicity on 22RV1 cells, DX8951 ADC, DAR 8, 6 d)” value worked out at 0.8 nM.

Consider B10, for which the “IC50 (cytotoxicity on 22RV1 cells, DX8951 ADC, DAR 8, 6 d)” value is 1.4 nM.

In the case of B11, the “IC50 (cytotoxicity on 22RV1 cells, DX8951 ADC, DAR 8, 6 d)” value amounted to 2.2 nM.

Take B12: the “IC50 (cytotoxicity on 22RV1 cells, DX8951 ADC, DAR 8, 6 d)” value was found to be 0.7 nM.

A further experiment addresses T2, human prostate-specific membrane …. The experiment in a line: cell-based or functional assay. This is another data set of the same source.
Regarding B13, the “C4-2B IC50 (cytotoxicity, vcMMAF ADC, DAR 4, 72 h)” value was 0.03 nM.

On to B14, for which the “C4-2B IC50 (cytotoxicity, vcMMAF ADC, DAR 2.9, 72 h)” value came out at 0.04 nM.

Turning to B15, the “C4-2B IC50 (cytotoxicity, vcMMAF ADC, DAR 3.6, 72 h)” value was found to be 0.03 nM.

Regarding B16, the “C4-2B IC50 (cytotoxicity, vcMMAF ADC, DAR 3.6, 72 h)” value was 0.03 nM.

The target is the same in the next experiment. The experiment in a line: flow cytometry on C4-2B cells (high PSMA), anti-human AF647 detection, four-parameter fit. On the procedure: The affinity of the purified antibodies was also determined on C4-2B, a cell line with high PSMA levels. Briefly, C4-2B cells were washed once with 1×PBS and incubated with 3 mls/T150 flask of cell dissociation buffer until detached, the cells were collected and strained through a […] sieve. Cells were resuspended at 0.5×10e6 cells/mL in staining buffer (BD #554657) and seeded at 25,000 cells/well in V bottom plate (Corning 3894). To each well, 50 μl of Ab 4-fold serially diluted in staining buffer from 120 nM (60 nM final) were added at 2× final concentration. Control mAbs were added at 2 μg/ml, 1 μg/ml final (controls were: —secondary only and isotype control). All primary antibodies were incubated with the cells for 60 min at 4° C. After the primary incubation, 100 μl staining buffer were added to all wells and the cells were washed by pelleting by centrifugation at 300×g 5 min and buffer removed by flicking the plate. Then cells were similarly washed again with 200 μl staining buffer. […] After 30 minutes incubation at 4° C., the cells were washed as described above with 150 ul staining buffer, followed by a final wash with 200 ul running buffer (Running buffer is staining buffer plus 1 mM EDTA and 0.1% pluronic acid). Cells were resuspended in 30 ul/well running buffer with 1:1000 Sytox Blue viability stain (Invitrogen #S34857) and stored at 4° C. until read on the flow cytometer. Plates were read on an IntelliCyt IQue 3 instrument. Briefly, cells were gated on live cells, then populations were gated on singlets. Antibody binding was assessed by AF647 fluorescence at 647 nm. Data was analyzed in GeneData Screener with signal/background AF647 fluorescence plotted against antibody concentration.
Background: In flow cytometry, cells or beads pass a laser one at a time.
For B1, a half-maximal response (EC50) required 0.306 nM.

Regarding B2, a half-maximal response (EC50) required 0.633 nM.

Take B3: the EC50 – broadly, the midpoint of the concentration-response curve – stood at 2.46 nM.

On to B4, for which a half-maximal response (EC50) required 13.8 nM.

Consider B5, for which a half-maximal response (EC50) required 0.381 nM.

Take B6: a half-maximal response (EC50) required 0.156 nM.

For B7, the response was half-maximal at 12.4 nM (EC50).

Regarding B8, the EC50 was determined as 2.52 nM.
